These results are taken from publication PMC3467265.

A word on the stoichiometry N: it is the number of molecules, sites or subunits per partner or assembly.

This assay addresses Cryptosporidium parvum pyruvate kinase (Cryptosporidium parvum). Nature of the assay: SEC; analytical Superdex 200 10/30, partially purified CpPyK, elution compared with catalase (Mr 232 kDa) run separately; fractions checked by SDS-PAGE. (SEC sorts molecules by how far they enter the pores of the column.)

In turn, “Cryptosporidium parvum pyruvate kinase (enzyme)” came in with a stoichiometry N of 4.
